Biological target: Dup A502,Y503 KIT D4D5 fragment (human) (UniProt P10721)
Assay: SEC-MALS

Kd: 730 µM
Substance: Dup A502,Y503 KIT D4D5 fragment (from UniProt P10721 308-514) (domain or fragment)
